Consider one sequence from patent US10058587B2, “Peptide composition for cancer treatment by inhibiting TRPV6 calcium channel activity” (priority 2008, dated 2018).

A word on the half-life: it is the time needed for the level to fall by half in the phase considered.

The nature of data set [1]: Degradation rate in rat plasma (HPLC). Type of data set: in vitro ADME. On the procedure:
Rat plasma was obtained from blood taken from sacrificed rats (Sprague-Dawley) and placed into heparinized glass vials to prevent clotting. Whole blood was centrifuged at 8000×g for 5 minutes to spin down the cells leaving the plasma as supernatant. Human whole blood samples from healthy humans were taken in lithium-heparinized vacuum tubes. The samples were placed into 2.0 mL microcentrifuge tubes and centrifuged at 8000×g for 5 min. The plasma was carefully separated from red blood cells and used immediately.
Determination of degradation rate of the C-peptides was done by measuring, with the HPLC protocol, the amount of either SorC13 or SorC27 in dosed plasma samples, after time. Sample tubes (500 uL) containing 2 uL of 2 mM Pefabloc were previously prepared for sample delivery SorC13 (1.0 mg) or SorC27 (2.0 mg) were dissolved in 1.0 mL of fresh plasma (37° C.) and placed in an incubating water bath at 37° C. A sample (100 uL) was taken immediately and quenched in sample tubes containing 2 uL of 2 mM Pefabloc, mixed vigorously and immediately frozen at −80° C. This initial sample represented time zero for the run. At successive time intervals of 5 minutes, 100 uL samples were withdrawn, quenched in Pefabloc, mixed, and frozen at −80° C. until analysis.
The rat plasma degradation rate was determined for the plasma from three different rats, while the rate of degradation in human plasma used six separate plasma samples. The data used were the means (±SEM) and were fitted to a simple one-phase exponential decay model to determine the half-life of the two peptides. This also allowed the calculation of a static degradation rate. FIG. 11 is illustrative of the rate at which SorC27 was degraded in human plasma.

Data set [2] in a line: Tissue distribution of Cy5.5-labeled peptides by optical imaging. Type of data set: in vivo, CD1 mice. An excerpt: SorC13 and SorC27 were labeled with the near-infrared probe, Cy5.5. SorC13 was labeled at lysine-1 and lysine-8 with the infrared fluorescent probe cy5.5 through reaction with Cy5.5 NHS ester-activated process. SorC27 was labeled at the single cysteine thiol with Cy5.5 maleamide-activated reaction. The labeled peptides were purified with a combination of size exclusion chromatography and HPLC. The label, Cy5.5, fluoresces in the infra-red region after excitation with a scanning laser. The low energy laser is able to penetrate the animal to about 1 cm and, thus, by scanning prone and supine positions, the presence of the tagged peptides can be quantified in three dimensions.
Cy5.5-labeled peptides were intravenously injected into CD1 mice (4 for each compound) at 100 ug per animal in 100 uL, and animals were imaged live using an optical imaging system, Optix eXplorer (GE Healthcare Systems) at different time points (30 min, 90 min, 4 h). […] The bio-distribution of the labeled peptides in different organs and tissues were visualized and relatively quantified by optical imaging analysis. This protocol allows for visualization of the location of the labeled peptides and how the location changes over time. […] Nodes that accumulated the labeled peptides are indicated by line 1 (superfacial cervical nodes), line 4 (axillary nodes), line 5 (brachial nodes), line 8 (mesenteric nodes) and line 9 (inguinal nodes). FIGS. 8, 9 and 10 show the amounts of labeled peptides in various organs ex vivo.

Where no end group is shown, it is not given here.

The sequence EGKLSSNDTEGGLCKEFLHPSKVDLPR [SorC27] displayed a half-life in data set [1] (Sprague-Dawley, rat, plasma, 37° C.) of 21 min. In addition, the “binding to plasma proteins” value in data set [1] (rat plasma) is “doesn't bind to”. Besides, in data set [2] (Cy5.5-tagged peptide, 24 hours), the “detectable in tissues after perfusion” value is given as “still detectable”. Besides, the tissue localization result in data set [2] (Cy5.5-tagged peptide, i.v. 100 ug) was “localize predominantly in lymph nodes, lung, liver and kidney”. Also, the “tissues with highest percent uptake (of total fluorescence) after perfusion” value in data set [2] (Cy5.5 labeled, 4 and 24 hours after i.v. injection) is “liver, lung and kidney”.
